Among the data in PMC7542365 (mBio, 2020) are stoichiometry N values, retold here.

This assay addresses A/Anhui/1/2013 H7N9 NA, thrombin-digested (for crystals) (influenza A virus A/Anhui/1/2013 (H7N9)). The experiment in a line: crystal structure.

What is called stoichiometry N is the number of molecules, sites or subunits per partner or assembly. For the substance “A/Anhui/1/2013 H7N9 NA, thrombin-digested (for crystals) (domain or fragment)”, the stoichiometry N came out at 4.
